Series [1] deals with RlmH R154A (Escherichia coli (ASKA clone JW0631)). As to the kind of experiment: competition. The following applies: pseudouridine 1915 lacking N3-methylation (delta-rlmH), Single-turnover competitive methylation assay, mutant pre-incubated with heat-activated 70S ribosomes 20 min at 25 C before wild-type RlmH-[3H]SAM.
Series [2] relates to RlmH H153F (Escherichia coli (ASKA clone JW0631)). Put plainly: competition. As to conditions: pseudouridine 1915 lacking N3-methylation (delta-rlmH), Single-turnover competitive methylation assay, mutant pre-incubated with heat-activated 70S ribosomes 20 min at 25 C before wild-type RlmH-[3H]SAM.
Series [3] deals with RlmH Y152F (Escherichia coli (ASKA clone JW0631)). As to the kind of experiment: competition. The following applies: pseudouridine 1915 lacking N3-methylation (delta-rlmH), Single-turnover competitive methylation assay, mutant pre-incubated with heat-activated 70S ribosomes 20 min at 25 C before wild-type RlmH-[3H]SAM.
Series [4] deals with RlmH E138A (Escherichia coli (ASKA clone JW0631)). Put plainly: competition. The following applies: pseudouridine 1915 lacking N3-methylation (delta-rlmH), Single-turnover competitive methylation assay, mutant pre-incubated with heat-activated 70S ribosomes 20 min at 25 C before wild-type RlmH-[3H]SAM.
The subject of series [5] is RlmH E138Q (Escherichia coli (ASKA clone JW0631)). As to the kind of experiment: competition. The following applies: pseudouridine 1915 lacking N3-methylation (delta-rlmH), Single-turnover competitive methylation assay, mutant pre-incubated with heat-activated 70S ribosomes 20 min at 25 C before wild-type RlmH-[3H]SAM.
In series [6] the target is T1, RlmH (ribosomal large-subunit methyltransferase H) (Escherichia coli, UniProt P0A8I8).
T1 construct: full length (155 residues, ~17 kDa), first Met replaced by MHHHHHHV (N-terminal His6 tag kept), expressed in E. coli BLR(DE3), homodimer
Put plainly: X-ray crystal structure, […] Å. As to conditions: co-crystallised with 2 mM sinefungin, pH 8.5, 16 °C; SAM-binding pocket, two ligands per dimer.

For series [7], the target named is RlmH (ribosomal large-subunit methyltransferase H) (Escherichia coli, UniProt P0A8I8, E138A). As to the kind of experiment: isothermal titration calorimetry, sequential binding model. The following applies: 50 mM sodium phosphate pH 6.8, 200 mM KCl, 5% glycerol, 1 mM β-mercaptoethanol, 25 °C; first SAM site of the dimer; read-out: Calculated K D1. From the text: (§1) isothermal titration calorimetry, sequential binding model on RlmH (ribosomal large-subunit methyltransferase H)

The target in series [8] is T1, RlmH (ribosomal large-subunit methyltransferase H). The description is as above. The following applies: 50 mM sodium phosphate pH 6.8, 200 mM KCl, 5% glycerol, 1 mM β-mercaptoethanol, 25 °C; first SAM site of the dimer; read-out: Calculated K D1.
Source text: as §1

For series [9], the target named is RlmH (ribosomal large-subunit methyltransferase H) (Escherichia coli, UniProt P0A8I8, E138Q). The series is described as above. As to conditions: 50 mM sodium phosphate pH 6.8, 200 mM KCl, 5% glycerol, 1 mM β-mercaptoethanol, 25 °C; first SAM site of the dimer; read-out: Calculated K D1.
Source text: as §1

Series [10] concerns the molecule itself. Put plainly: SEC-MALS; Superdex S-200 HR10/30; 50 mM potassium phosphate pH 7.0, 300 mM KCl, 2 mM DTT, 5% glycerol; dialyzed protein injected at ~20 and ~200 µM (0.35 mg/ml and 3.85 mg/ml); same result at both. Background: Size exclusion chromatography separates by hydrodynamic size, large species first.

RlmH (ribosomal large-subunit methyltransferase H) (Escherichia coli, UniProt P0A8I8, E138A), sequence (P0A8I8 2-155 E138A): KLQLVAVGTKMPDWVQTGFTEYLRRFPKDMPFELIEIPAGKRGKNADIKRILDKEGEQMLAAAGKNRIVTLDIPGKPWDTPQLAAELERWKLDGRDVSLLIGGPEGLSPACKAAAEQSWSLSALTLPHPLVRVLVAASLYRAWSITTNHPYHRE
RlmH (ribosomal large-subunit methyltransferase H) (Escherichia coli, UniProt P0A8I8, E138Q), sequence (P0A8I8 2-155 E138Q): as the sequence (P0A8I8 2-155 E138A) above, with A137Q counted along it

One may read the IC50 as the concentration at which inhibition is half-maximal. A higher IC50 goes with weaker potency in that assay. For the molecule “delta-rlmH 70S ribosome (23S rRNA helix 69, pseudouridine 1915)”, the IC50 in series [1] worked out at 40 µM; in [2], 3 µM; in series [3], 3 µM; in series [4], 3 µM; in series [5], 3 µM.

For `Nc1ncnc2c1ncn2[C@@H]1O[C@H](C[C@@H](N)CC[C@H](N)C(=O)O)[C@@H](O)[C@H]1O` [SFG, sinefungin], in series [6], the “X-ray crystal structure, 2.1 Å” value is reported as “crystal structures of E. coli RlmH bound to the cofactor SAM or to the inhibitor sinefungin”.

Turning to `C[S+](CC[C@H](N)C(=O)O)C[C@H]1O[C@@H](n2cnc3c(N)ncnc32)[C@H](O)[C@@H]1O` (stereo partly shown) [SAM, S-adenosyl-methionine], the Kd in [7] is 6.7 ± 0.77 µM; in series [8], 5.58 ± 0.31 µM; in [9], 7.05 ± 0.56 µM.

B1: ribosomal large-subunit methyltransferase H (RlmH), wild type, His6-tagged (enzyme, E. coli, UniProt P0A8I8 2-155, looked up)
chain: KLQLVAVGTKMPDWVQTGFTEYLRRFPKDMPFELIEIPAGKRGKNADIKRILDKEGEQMLAAAGKNRIVTLDIPGKPWDTPQLAAELERWKLDGRDVSLLIGGPEGLSPACKAAAEQSWSLSALTLPHPLVRVLVAESLYRAWSITTNHPYHRE
notes: RlmH (YbeA) of E. coli, 155 amino acids; rlmH gene from ASKA clone JW0631 in pET24b; no cleavage of the tag is described; Limits 2-155 follow from 'first methionine is replaced' and '155 amino acids'; also called YbeA; WT; source: E. coli BLR(DE3), purified (nickel IMAC twice, SEC on Superdex75); not shown: His6, N-terminal, kept
Broadly, the stoichiometry N is the number of molecules, sites or subunits per partner or assembly. Consider B1, for which, in [10], the “stoichiometry N” value came to 2.

B2: RlmH H153F, His6-tagged (enzyme, E. coli, UniProt P0A8I8 2-155, looked up)
chain: KLQLVAVGTKMPDWVQTGFTEYLRRFPKDMPFELIEIPAGKRGKNADIKRILDKEGEQMLAAAGKNRIVTLDIPGKPWDTPQLAAELERWKLDGRDVSLLIGGPEGLSPACKAAAEQSWSLSALTLPHPLVRVLVAESLYRAWSITTNHPYFRE
notes: RlmH (YbeA) of E. coli, 155 amino acids; source: E. coli BLR(DE3), purified as the wild-type protein; not shown: His6, N-terminal, kept
On to B2, for which the “stoichiometry N” value in [10] is 2.

B3: RlmH Y152F, His6-tagged (enzyme, E. coli, UniProt P0A8I8 2-155, looked up)
chain: KLQLVAVGTKMPDWVQTGFTEYLRRFPKDMPFELIEIPAGKRGKNADIKRILDKEGEQMLAAAGKNRIVTLDIPGKPWDTPQLAAELERWKLDGRDVSLLIGGPEGLSPACKAAAEQSWSLSALTLPHPLVRVLVAESLYRAWSITTNHPFHRE
notes: as for B2
Consider B3, for which, in series [10], the “stoichiometry N” value is 2.

B4: RlmH R154A, His6-tagged (enzyme, E. coli, UniProt P0A8I8 2-155, looked up)
chain: KLQLVAVGTKMPDWVQTGFTEYLRRFPKDMPFELIEIPAGKRGKNADIKRILDKEGEQMLAAAGKNRIVTLDIPGKPWDTPQLAAELERWKLDGRDVSLLIGGPEGLSPACKAAAEQSWSLSALTLPHPLVRVLVAESLYRAWSITTNHPYHAE
notes: as for B2
With B4, the “stoichiometry N” value in series [10] was found to be 2.

Values taken from paper PMC5430550 (Scientific Reports, 2017).
